By Kd is commonly meant the equilibrium constant for the complex coming apart. A word on the koff: it is the rate constant with which the complex falls apart. The term kon denotes a measure of how fast the partners come together.

The target in test [1] is T1, Recombinant human IL-1beta (rhIL-1b) (human, UniProt P01584 117-269). In words: cell-based or functional assay.
For test [2], the target named is T1, Recombinant human IL-1beta (rhIL-1b). In words: cell-based or functional assay. The source holds these as a separate data set.
Test [3] shares this target. In words: cell-based or functional assay. The source holds these as a separate data set.
Test [4] shares this target. The test is described as follows: cell-based or functional assay. The source holds these as a separate data set.
Test [5] has the same target. In words: KinExA, dual curve analysis. (In general: Kinetic exclusion samples the free partner from a solution-phase mixture.)
Test [6] shares this target. The test is described as follows: Biacore, Low Resolution screen.
The target is the same in test [7]. The test is described as follows: KinExA, single KD-controlled titration.
The target in the next test is T2, IL-1β H30A mutant (human, UniProt P01584 117-269).
T2 construct: site-directed mutant
The test is described as follows: binding to site-directed IL-1β mutants.

Test [8] has as its target T1, Recombinant human IL-1beta (rhIL-1b). The test is described as follows: Biacore high-res, mAb amine-coupled, 23C. In general terms: In SPR one partner is held on a chip, and binding of the other changes the refractive index at the surface.
The next test deals with T3, IL-1β R4A mutant (human, UniProt P01584 117-269).
T3 construct: site-directed mutant
In words: binding to site-directed IL-1β mutant; X = abrogation of binding.

In another test the target is T4, IL-1β R11A mutant (human, UniProt P01584 117-269).
T4 construct: site-directed mutant
Described as above.

Test [9] deals with T1, Recombinant human IL-1beta (rhIL-1b). In words: Biacore, Medium Resolution; IL-1β in solution; medium-resolution Biacore.
Test [10] has the same target. In words: Biacore low-res, mAb captured, 25C; IL-1β in solution (118 nM) over captured mAb; low-resolution Biacore, 25 C.
Test [11] has the same target. In words: KinExA, triple curve analysis.

B1: 5.5.1 (antibody, IgG4, V domains shown)
VH: QVQLVESGGGVVQPGRSLRLSCAASGFTFSSYGMHWVRQAPGKGLEWVAVIWYDGDNKYYADSVQGRFTISRDNSKNTLYLQMNSLRPEDTAVYYCARERSSSWYFDYWGQGTLVTVSS
VL: QSALTQPASVSGSPGQSITISCTGTSSDVGSYNLVSWYQQHPGKAPKLMIYEVSKRPSGISNRFSGSKSGNTASLTISGLQAEDEADYYCCSYAGSSTWVFGGGTKLTVL
notes: lambda; also called mAb 5.5.1; Ab 5.5.1
Turning to B1, the “% IL-6 production, supernatant 1:5 dilut.” value in test [1] is 1%. Besides, the “% IL-6 production, supernatant 1:10 dilut.” value in test [1] came out at 3%. Further, the “% IL-6 production, supernatant 1:20 dilut.” value in test [1] came to 6%. In test [2], the “EC50, inhibition of IL-1β-induced IL-6 production in MRC-5 cells” value (“EC50, inhibition … in MRC-5 cells” for short) amounted to 216 pM. For the same molecule, the “EC50, inhibition of IL-1β-induced IL-8 production in human whole blood” value (“EC50, inhibition … in human whole blood” below) in test [3] was 1670 pM. Further, the “In Vivo Potency EC50, inhibition of IL-6 induced in mice by human IL-1β” value (“In Vivo Potency EC50, inhibition” for short) in [4] was 51 pmoles/mouse. Also, the Kd was found to be 20 pM in test [5]; 278 pM in [6]; 19 pM in [7]; 44.7 pM in test [8]; 180 pM in test [9]; 278 pM in [10]. For the same molecule, the binding result with IL-1β H30A mutant was “binds”; with IL-1β R4A mutant, “no binding”; with IL-1β R11A mutant it was “no binding”. For the same molecule, the koff turned out to be 0.000704 s⁻¹ in test [8], 0.00057 s⁻¹ in test [9] and 0.0005 s⁻¹ in test [10]. Further, the kon in test [8] stood at 1.57e+07 M⁻¹ s⁻¹; in test [9] it was 3.1e+06 M⁻¹ s⁻¹; in test [10], 1.8e+06 M⁻¹ s⁻¹.

B2: 9.5.2 IgG2 (antibody, V domains shown)
VH: EVQLVESGGGLVKPGRSLRLSCTGSGFTFGDYALNWFRQAPGMGLEWVGFIRGKAYGGTTEYAASVKGRFTISRDDSKSIAYLQMNSLKTEDTAVYYCNREVEYCRSSENYCYGMDVWGQGTTVTVS
VL: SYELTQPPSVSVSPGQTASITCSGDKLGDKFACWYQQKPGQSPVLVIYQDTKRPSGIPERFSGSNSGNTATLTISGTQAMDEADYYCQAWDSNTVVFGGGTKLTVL
notes: also called mAb 9.5.2 (IgG2 isotype); 9.5.2 IgG2λ
B2: in test [2], the “EC50, inhibition … in MRC-5 cells” value stood at 4 pM. The “EC50, inhibition … in human whole blood” value in [3] was determined as 69 pM. Besides, the “In Vivo Potency EC50, inhibition” value in test [4] was found to be 8 pmoles/mouse. Moreover, the results for the Kd in test [11] and in [7] were 0.204 pM and 0.041 pM, respectively.

B3: 9.5.2 IgG1 (antibody, V domains shown)
VH: B2 VH
VL: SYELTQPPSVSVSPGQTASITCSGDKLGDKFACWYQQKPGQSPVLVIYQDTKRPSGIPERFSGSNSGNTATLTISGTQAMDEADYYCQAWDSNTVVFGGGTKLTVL
Regarding B3, the “EC50, inhibition … in MRC-5 cells” value in test [2] was 1 pM. Further, the “EC50, inhibition … in human whole blood” value in [3] stood at 106 pM. For the same molecule, in [4], the “In Vivo Potency EC50, inhibition” value was found to be 5 pmoles/mouse.

B4: 8.18.1 (antibody, human IgG4, V domains shown)
VH: QVQLQESGPGLVKPSETLSLTCTVSGGSVSSGGYYWSWIRQPPGKGLEWIGYFYYSGSPNYNPSLKRRIAISVDTSKNQFSLRLSSVTAADTAVYYCARDPMHYYGMDVWGQGTTVTVSS
VL: SSELTQPPSVSVFPGQTANITCSGDKLGDKFACWYQQKPGQSPVLVIYRDNKRPSGIPERFSGSNSGNTATLTISGTQAMDEADYYCQAWDSSTYVVFGGGTKLTVL
notes: lambda; also called mAb 8.18.1
Consider B4, for which the “% IL-6 production, supernatant 1:5 dilut.” value in [1] is 2%. In test [1], the “% IL-6 production, supernatant 1:10 dilut.” value turned out to be 3%. Further, in test [1], the “% IL-6 production, supernatant 1:20 dilut.” value was 9%. Besides, the “EC50, inhibition … in MRC-5 cells” value in [2] came to 536 pM. The “EC50, inhibition … in human whole blood” value in test [3] was 2290 pM. Also, the Kd in [6] was determined as 629 pM; in [8], 388 pM; in test [9], 450 pM; in [10] it was 629 pM. Also, the results for the koff in [8], in test [9] and in [10] were 0.000188 s⁻¹, 0.00022 s⁻¹ and 0.00022 s⁻¹, respectively. In addition, the kon in [8] was 485000 M⁻¹ s⁻¹; in test [9] it was 490000 M⁻¹ s⁻¹; in [10] it was 350000 M⁻¹ s⁻¹. Moreover, the binding result with IL-1β R4A mutant and with IL-1β R11A mutant was “no binding” throughout.

The values above are taken from patent US20070065439A1 (Amgen, published 2007).
